Assay results: IntAct's records for PubMed 21768349

B1: DNA repair protein XRCC4 (Homo sapiens), Q13426 (parent)
chain: MERKISRIHLVSEPSITHFLQVSWEKTLESGFVITLTDGHSAWTGTVSESEISQEADDMAMEKGKYVGELRKALLSGAGPADVYTFNFSKESCYFFFEKNLKDVSFRLGSFNLEKVENPAEVIRELICYCLDTIAENQAKNEHLQKENERLLRDWNDVQGRFEKCVSAKEALETDLYKRFILVLNEKKTKIRSLHNKLLNAAQEREKDIKQEGETAICSEMTADRDPVYDESTDEESENQTDLSGLASAAVSKDDSIISSLDVTDIAPSRKRRQRMQRNLGTEPKMAPQENQLQEKENSRPDSSLPETSKKEHISAENMSLETLRNSSPEDLFDEI

Variants of: B1
Conditions: with NHEJ1, Q9H9Q4-1
Chain of NHEJ1, Q9H9Q4-1 (Q9H9Q4 whole entry): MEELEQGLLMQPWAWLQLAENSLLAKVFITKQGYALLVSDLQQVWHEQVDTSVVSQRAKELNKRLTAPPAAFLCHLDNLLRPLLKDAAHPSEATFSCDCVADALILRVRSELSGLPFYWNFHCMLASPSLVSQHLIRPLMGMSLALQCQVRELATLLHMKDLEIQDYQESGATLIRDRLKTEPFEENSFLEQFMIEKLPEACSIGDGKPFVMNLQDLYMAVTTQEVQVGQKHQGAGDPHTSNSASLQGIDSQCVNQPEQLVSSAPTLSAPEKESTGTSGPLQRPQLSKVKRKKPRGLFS

| effect of a mutation on the interaction | Variant |
| --- | --- |
| disrupting interaction strength | M61R |
| decreasing interaction strength | K65E |
| decreasing interaction strength | F106Y |
| disrupting interaction strength | F106E |
| decreasing interaction strength | F106A |
| disrupting interaction strength | E55R |
| disrupting interaction strength | D58R |
